The record followed here is the Immune Epitope Database (IEDB).

Bounds are passed on as bounds.

In one assay the target is HLA-B*53:01. The assay can be described thus: IEDB peptide-MHC binding, purified MHC/competitive/fluorescence; ≥ and ≤ were set here for values at or beyond the usual limits of such assays. The settings on record: source organism: Human immunodeficiency virus 1.
In assay [1] the target is HLA-B*57:01. The assay is described as above. The settings on record: source organism: Homo sapiens.
A further assay concerns the target HLA-B*48:01. The assay can be described thus: IEDB peptide-MHC binding, purified MHC/direct/fluorescence; filed as Kd, often an IC50 or EC50 that approximates it; ≥ and ≤ were set here for values at or beyond the usual limits of such assays.
Another assay deals with HLA-B*38:01. The description is as above. The settings on record: source organism: Bacillus cereus H3081.97.
The target in the next assay is HLA-A*26:01. The description is as above. The settings on record: source organism: Bacillus cereus H3081.97.
The target of a further assay is HLA-A*02:01. The description is as above.
The target in another assay is HLA-B*08:02. Described as above.
In another assay the target is HLA-B*15:01. The assay is described as above.
The target of assay [2] is HLA-B*58:01. The description is as above.
Another assay deals with HLA-B*40:01. The description is as above.
The target of assay [3] is HLA-A*26:02. The assay is described as above. The settings on record: source organism: Bacillus cereus H3081.97.
Another assay concerns the target HLA-A*01:01. Described as above.
The target of a further assay is HLA-B*07:02. The assay is described as above.
Assay [4] concerns the target HLA-B*39:01. The description is as above.
Assay [5] addresses HLA-B*15:09. The assay is described as above. The settings on record: source organism: Bacillus cereus H3081.97.
In the next assay the target is HLA-A*03:01. The assay is described as above.
The target of the next assay is HLA-B*51:01. The assay is described as above.
Another assay concerns the target HLA-B*27:05. Described as above.
The target of assay [6] is HLA-B*57:01. Described as above.
For a further assay, the target named is HLA-A*69:01. The description is as above.
Assay [7] has as its target HLA-A*11:01. In words: IEDB peptide-MHC binding, purified MHC/competitive/fluorescence; filed as Kd, often an IC50 or EC50 that approximates it; ≥ and ≤ were set here for values at or beyond the usual limits of such assays. The settings on record: source organism: Bacillus thuringiensis serovar sotto str. T04001.
The target of a further assay is HLA-B*08:01. The assay is described as above. The settings on record: source organism: Bacillus thuringiensis serovar sotto str. T04001.
Assay [8] has as its target HLA-B*15:17. The description is as above.
Another assay deals with HLA-A*30:01. The description is as above. The settings on record: source organism: Bacillus thuringiensis serovar sotto str. T04001.
In assay [9] the target is HLA-A*31:01. The assay is described as above. The settings on record: source organism: Bacillus thuringiensis serovar sotto str. T04001.
Assay [10] has as its target HLA-A*11:01. In words: IEDB peptide-MHC binding, purified MHC/direct/fluorescence; filed as Kd, often an IC50 or EC50 that approximates it; ≥ and ≤ were set here for values at or beyond the usual limits of such assays.
In assay [11] the target is HLA-B*15:17. The description is as above.
For a further assay, the target named is HLA-B*18:01. The description is as above.
A further assay deals with HLA-B*44:02. Described as above.
Assay [12] addresses HLA-A*31:01. The assay is described as above.
Assay [13] deals with HLA-A*26:03. In words: IEDB peptide-MHC binding, purified MHC/competitive/fluorescence; filed as Kd, often an IC50 or EC50 that approximates it; ≥ and ≤ were set here for values at or beyond the usual limits of such assays. The settings on record: source organism: Influenza A virus.
The target of another assay is HLA-B*46:01. In words: IEDB peptide-MHC binding, purified MHC/direct/fluorescence; filed as Kd, often an IC50 or EC50 that approximates it; ≥ and ≤ were set here for values at or beyond the usual limits of such assays. The settings on record: source organism: Vibrio cholerae.
Assay [14] has as its target HLA-B*39:01. The assay can be described thus: IEDB peptide-MHC binding, purified MHC/competitive/fluorescence; filed as Kd, often an IC50 or EC50 that approximates it; ≥ and ≤ were set here for values at or beyond the usual limits of such assays. The settings on record: source organism: Vibrio cholerae 2740-80.
The target in assay [15] is HLA-B*15:09. Described as above. The settings on record: source organism: Vibrio cholerae 2740-80.
Assay [16] concerns the target HLA-B*58:01. The assay can be described thus: IEDB peptide-MHC binding, cellular MHC/competitive/fluorescence; ≥ and ≤ were set here for values at or beyond the usual limits of such assays. The settings on record: source organism: Human herpesvirus 4 strain B95-8.
Another assay concerns the target HLA-B*73:01. In words: IEDB peptide-MHC binding, purified MHC/competitive/fluorescence; filed as Kd, often an IC50 or EC50 that approximates it; ≥ and ≤ were set here for values at or beyond the usual limits of such assays. The settings on record: source organism: Brucella abortus S19.
In assay [17] the target is HLA-A*26:03. The assay can be described thus: IEDB peptide-MHC binding, purified MHC/direct/fluorescence; filed as Kd, often an IC50 or EC50 that approximates it; ≥ and ≤ were set here for values at or beyond the usual limits of such assays. The settings on record: source organism: Variola virus.
For a further assay, the target named is HLA-A*68:02. In words: IEDB peptide-MHC binding, purified MHC/competitive/fluorescence; filed as Kd, often an IC50 or EC50 that approximates it; ≥ and ≤ were set here for values at or beyond the usual limits of such assays. The settings on record: source organism: Vaccinia virus Tian Tan.
Assay [18] deals with HLA-A*26:02. Described as above. The settings on record: source organism: Vaccinia virus Tian Tan.
The mark [19] stands for this setting: source organism: Bacillus anthracis.
Setting [20] is: source organism: Bacillus cereus H3081.97.
[21] abbreviates: source organism: Influenza A virus (A/chicken/Thailand/LV1NF/2004(H5N1)).
Where [22] appears, read: source organism: Vibrio cholerae.
Setting [23] is: source organism: Camelpox virus CMS.

In the case of WPVKVIHT, the IC50 with HLA-B*53:01 is at least 20 µM.
In the assay with HLA-B*57:01 [1], STIRLLTSL returned a concentration for half-maximal inhibition (IC50) of 0.853 µM.
In the case of TVIRFWHAM, the Kd with HLA-B*48:01 (setting [19]) is at least 20 µM; with HLA-B*38:01, at least 20 µM; in the assay with HLA-A*26:01, 0.012 µM; in the assay with HLA-A*02:01 (setting [19]), at least 20 µM; in the assay with HLA-B*08:02 (setting [20]), at least 20 µM; with HLA-B*15:01 (setting [19]), 0.0207 µM. Also, the Kd is 0.074 µM with HLA-B*58:01 [2] (setting [19]); at least 20 µM with HLA-B*40:01 (setting [19]); at most 0.001 µM with HLA-A*26:02 [3]; at least 20 µM with HLA-A*01:01 (setting [19]); 1.81 µM with HLA-B*07:02 (setting [19]); 0.05 µM with HLA-B*39:01 [4] (setting [20]). Moreover, the Kd with HLA-B*15:09 [5] is 6.04 µM; with HLA-A*03:01 (setting [19]) it was at least 20 µM; in the assay with HLA-B*51:01 (setting [20]), at least 20 µM; with HLA-B*27:05 (setting [19]), at least 20 µM; with HLA-B*57:01 [6] (setting [19]), 0.593 µM; in the assay with HLA-A*69:01 (setting [19]) it was at most 0.001 µM. Also, the Kd is 0.0979 µM with HLA-A*11:01 [7]; at least 20 µM with HLA-B*08:01; 0.293 µM with HLA-B*15:17 [8] (source organism: Bacillus thuringiensis serovar sotto str. T04001); 0.168 µM in the assay with HLA-A*30:01; 0.0344 µM with HLA-A*31:01 [9].
Regarding EMIWDPNGW, the Kd with HLA-A*11:01 [10] (setting [21]) was at least 20 µM; with HLA-B*48:01 (setting [21]), at least 20 µM; with HLA-B*15:17 [11] (setting [21]) it was at least 20 µM; with HLA-A*02:01 (setting [21]), at least 20 µM; with HLA-B*15:01 (setting [21]) it was at least 20 µM; in the assay with HLA-B*18:01 (setting [21]), 2 µM. Besides, the Kd is 0.185 µM with HLA-B*58:01 [2] (source organism: Influenza A virus (A/Puerto Rico/8/34/Mount Sinai(H1N1))); at least 20 µM with HLA-B*40:01 (setting [21]); at least 20 µM with HLA-B*44:02 (setting [21]); at least 20 µM with HLA-A*01:01 (setting [21]); at least 20 µM with HLA-B*07:02 (setting [21]); at least 20 µM with HLA-B*39:01 [4] (source organism: Influenza A virus (A/chicken/Hebei/706/2005(H5N1))). Further, the Kd with HLA-A*03:01 (setting [21]), with HLA-A*31:01 [12] (setting [21]), in the assay with HLA-B*27:05 (setting [21]), with HLA-B*57:01 [6] (setting [21]), with HLA-A*69:01 (setting [21]) and in the assay with HLA-A*26:03 [13] was at least 20 µM throughout.
Regarding FPLTQRDVL, the Kd in the assay with HLA-A*11:01 [10] (setting [22]), with HLA-B*48:01 (setting [22]), with HLA-B*15:17 [11] (setting [22]), with HLA-A*02:01 (setting [22]), in the assay with HLA-B*08:02 (source organism: Vibrio cholerae V52) and with HLA-B*15:01 (setting [22]) was at least 20 µM in each case. For the same sequence, the Kd was 1.9 µM with HLA-B*18:01 (setting [22]); at least 20 µM with HLA-B*58:01 [2] (setting [22]); at least 20 µM in the assay with HLA-B*40:01 (setting [22]); at least 20 µM with HLA-A*01:01 (setting [22]); 0.046 µM in the assay with HLA-B*07:02 (setting [22]); at least 20 µM with HLA-A*03:01 (setting [22]). For the same sequence, the Kd with HLA-A*31:01 [12] (setting [22]) was at least 20 µM; with HLA-B*51:01 (setting [22]), 2.82 µM; in the assay with HLA-B*27:05 (setting [22]) it was at least 20 µM; in the assay with HLA-B*46:01, at least 20 µM; in the assay with HLA-B*57:01 [6] (setting [22]), at least 20 µM; in the assay with HLA-A*69:01 (setting [22]) it was 0.719 µM. Also, the results for the Kd in the assay with HLA-B*39:01 [14] and with HLA-B*15:09 [15] were 0.0144 µM and 0.358 µM, respectively.
With ATLNICNFW, the half-maximal inhibitory concentration (IC50) with HLA-B*58:01 [16] amounted to 5 µM.
Turning to NEAWGKKPV, the Kd in the assay with HLA-B*73:01 was at least 20 µM.
In the case of REVFYFGKF, the equilibrium dissociation constant (Kd) in the assay with HLA-A*11:01 [10] (setting [23]) is at least 20 µM; with HLA-B*48:01 (setting [23]) it was at least 20 µM; with HLA-A*02:01 (setting [23]), at least 20 µM; with HLA-B*18:01 (setting [23]) it was 0.813 µM; with HLA-B*58:01 [2] (setting [23]), at least 20 µM; in the assay with HLA-B*40:01 (setting [23]) it was 0.0617 µM. For the same sequence, the dissociation constant Kd with HLA-B*44:02 (setting [23]), in the assay with HLA-A*01:01 (setting [23]), with HLA-B*07:02 (setting [23]), with HLA-A*26:03 [17], with HLA-A*31:01 [12] (setting [23]) and with HLA-B*27:05 (setting [23]) was at least 20 µM throughout. For the same sequence, the Kd with HLA-B*57:01 [6] (setting [23]) is at least 20 µM; in the assay with HLA-A*69:01 (setting [23]) it was at least 20 µM; with HLA-B*15:17 [8] (source organism: Vaccinia virus Tian Tan), at least 20 µM; with HLA-A*68:02, 3.04 µM; with HLA-A*26:02 [18] it was 2.35 µM.
